From a protein production outcome set (Wang et al. 2014)

Experiment: label from the status in PepcDB records

Sequence	protein production
MTDNSPPPNGHAQARVRKNNTFLSAVWLVPLIALIAGGWLWVKEIRNRGPVVTLLMDSAEGIEVNNTVIKVLSIDVGRVTRIKLRDDQKGVEVTAQLNADVSGLIRSDTQFWVVKPRIDQSGVTGLGTLLSGSYIAFTPGKSDEAKDVFQVQDIPPVTAIGQSGLRLNLIGKNDRILNVNSPVLYENFMVGQVESAHFDPSDQSVHYTIFIQSPNDKLIHSASRFWLESGINIETTGSGIKLNSAPLPALLSGAISFDSPKTKNSKNVKSEDSFTLYDSRSEVANLPDDRSLYYTAFFKQSVRGLTVGSPVEYKGLNVGVVSDVPYFDRNDSLHLFENGWIPVRIRIEPSRLEINADEQSKEHWKQQFQTALNKGLTATISSNNLLTGSKMIELNDQPSASPKLRPHTVYAGDTVIATQGGGLDDLQVKLADLLDKFDKLPLDKTVAELNGSLAELKSTLKSANAALSSIDKLVGKPQTQNIPNELNQTLKELRTTLQGVSPQSPIYGDVQNTLQSLDKTLKDVQPVINTLKEKPNALIFNSSSKDPIPKGSR	failed
MTPYDIKDPDVRRRRFRPIPVRMLVPNVITLLAICAGLTSIRLSIEGRMSLAVYAIVFAAALDGIDGRIARMIKGQSKFGAELDSLADFVNFGVAPGLMLYFWQLHELGNAGWIAAMVFAISGGLRLARFNATMDDPNKPAFAANFFTGVPAPAGAITVLLPIYVAFLDLGRAPAAVTAAYTLLIAFLMVSRLPVFSGKTKRMRVPPELVLPAFVAVIVFIAILIAYPWHVLSIGTVLYLLALPLGYKSYRDQARAMDAATPAGGEISSPPSAPTLANLSEPPHDDDRPGRLH	failed
MVNEGLIPSLEDEVKRRGVINQLRKIVVRWVKNVAWQHRLPQNQIDATNATILPYGSYGLGVYGSESDIDALCIGPFFASIADFFISLRDMLKSRREVSELHCVKDAKVPLIRFKFDGILVDLPYAQLRVLSIPNNVDVLNPFFLRDIDETSWKILSGVRANKCILQLVPSLELFQSLLRCVKLWAKRRGVYGNLNGFLGGVHMAILAAFVCGYQPNATLSSLLANFFYTFAHWQWPTPVVLLEDTYPSTGAPPGLMPIQLPCGSHQYCNSTITRSTFYKIVAEFLLGHNLTKDYLKLNFSWKDLFELYPYANTYTWFTKIHLSAANQEDLSDWVGWVKSRFRCLLIKIEEVYGICDPNPTEYVETYTKQPNIVFYWGLQLRTINVSDIESVKIDFLKNVNSGSFRGTVGRIQLTLVKASQLPKNGECGSNNRSKKVTKTCWRIREDKQCNNVPVYSKHLPGYVVGYQKMVNREADGMEVKC	failed
MSQWITEWIPQVMNQLGYGGISLLMFLENLFPPIPSELIMPLAGFAVAQGKLELFPAIVAGIIGTILGAYPWYYIGKWVSEERLEQLADRYGKWIGLDAKDIHKSNVWFGRYGHQSVFFGRLVPGIRTIVSLPAGVNAMGLISFTLYSLGGISLWVTFLASAGYKLGDHYELVEQYLGPVSKIVLVSIVAILVLLIVRKQLRRRA	failed
MSAFQAFVVNKTETEFTAGVQTISMDDLPEGDVLVRVHYSSVNYKDGLASIPDGKIVKTYPFVPGIDLAGVVVSSQHPRFREGDEVIATGYEIGVTHFGGYSEYARLHGEWLVPLPKGLTLKEAMAIGTAGFTAALSIHRLEEHGLTPERGPVLVTGATGGVGSLAVSMLAKRGYTVEASTGKAAEHDYLRVLGAKEVLAREDVMAERIRPLDKQRWAAAVDPVGGRTLATVLSRMRYGGAVAVSGLTGGAEVPTTVHPFILRGVSLLGIDSVYCPMDLRLRIWERLAGDLKPDLERIAQEISLAELPQALKRILRGELRGRTVVRLA	not failed
MKKASFVYSENQLSYQFHSTHPFNHQRLRLTYDLLKSMDALDDSEIVAPRVATEAELRLIHDQAFIDAVKAAGNGTLSDGVALNYGLGTEDTPIFKNMHEAAALLVGGTLTAVDQVMEGHAEHACHLGGGLHHGFRGKASGFCVYNDSSIAIEYMRRKFGARVLYIDTDAHHGDGVQWAFYEEDDVCTLSIHETGRYLFPGTGNFNEKGQGEGYGYSINIPLDAFTEDDSFLFAYEQAVTNVVKFFKPDVILTQNGADAHFHDPLTHLCASMRTFRYIPQLAHALAHEYCEGRWIAVGGGGYDIWRVVPRAWAMIWLEMTDQLQKANGPLPERWLSKWTTYAQHPLPSHWEDENEELPTIPRRDEITEKNKKIVEKALYHIYTELKTQT	failed
MSTEQLLVLIAQNDIKDDIVDTLIELEFLSGFSLGNICGFSREHSHFNIKEQVEGYREFCKFEIMHPAAQQAALLTALALVCKHNPCRYWIMPIYQNGTLS	not failed
MKARQQKYCDKIANFWCHPTGKIIMSLAGKKIVLGVSGGIAAYKTPELVRRLRDRGADVRVAMTEAAKAFITPLSLQAVSGYPVSDSLLDPAAEAAMGHIELGKWADLVILAPATADLIARVAAGMANDLVSTICLATPAPVAVLPAMNQQMYRAAATQHNLEVLASRGLLIWGPDSGSQACGDIGPGRMLDPLTIVDMAVAHFSPVNDLKHLNIMITAGPTREPLDPVRYISNHSSGKMGFAIAAAAARRGANVTLVSGPVSLPTPPFVKRVDVMTALEMEAAVNASVQQQNIFIGCAAVADYRAATVAPEKIKKQATQGDELTIKMVKNPDIVAGVAALKDHRPYVVGFAAETNNVEEYARQKRIRKNLDLICANDVSQPTQGFNSDNNALHLFWQDGDKVLPLERKELLGQLLLDEIVTRYDEKNRR	failed
MFWTELCFILVALMIGARIGGVFLGMVGGLGVGVMVFIFGLTPSTPPIDVILIILSVVLAAASLQASGGLDLLVKLAEKILRRHPRYITLLAPFICYIFTFMSGTGHVVYSLLPVISEVARDSGIRPERPLSISVIASQQAITASPISAAMAAMIGLMAPLGVSISTIMMICVPATLIGVAMGAIATFNKGKELKDDPEYQRRLAEGLIKPAQKESKNTVVTSRAKLSVALFLTSAIVIVLLGLIPALRPMVETAKGLQPLSMSAAIQITMLSFACLIVLLCRPQVDQIISGTVFRAGALAIVCAFGLAWMSETFVNGHIALIKAEVQTLLQQHTWLIAIMMFFVSAMVSSQAATTLILLPLGLALGLPAYALIGSWPAVNGYFFIPVAGQCLAALAFDDTGTTRIGKYVLNHSFMRPGLVNVIVSVIVGLLIGKMVLA	failed
MAILVDVRAAREIQDGEAGCRWERPLALGQGAFYAATGAWPLVHMPSFVAVTGPKLEPWLVRTVGVLIGAIGGTLLSAGARRRITPEVRWLALASAAGIAAVELWYAGRRRRIAPVYLLDGAGELALAAAWAALGAGRRLRGGVGTVAGGRGRHGREEDAR	failed
MFMKKWIGIDLGTTNTVASYFDVSSKIILNERGERITPSIVSFSDKDVLVGSAAKNQILVNPQKTFYNFKTNIGSNNFYKVDGEFYKAEYISAHLLASVKRNAEKFLDEEIENAVITVPAYFSEIQRRCVVEAANFAGLNCKAILNEPTAAAIAYAFERQIDGIFLIYDLGGGTFDVTLMEKQGDTYTVLSVKGQSRLGGNDFNKIIEKYVLDSFKNKYPDFNLEDIFLLEQLRERIEEGKKNLSVMEEVDITLLFLDGKHLNYNLKRDEFNSMISEYIDKTIQLSMECIADSGVDISSVSKIILSGGSTRIPLIEKVLKESFPSATILDALNQDEVVAIGAGIHAFSLSRNDSVIKFKDVTPYSLGLEIKDNEFFTLIKRNTALPISRSKLFTTTNDYQDEIEIHILQGEYKKASLNYSIGRFSFGNIQKALKGIPKIEVLFTLNESGILSVNAKDLETNSSNFIEIKITSSSDNVAKESLSNTFTSIID	failed
METKILSNATHKCVLVIDNAQPTGIVANIASVLSMTLGCRVSNIVSHDVYDKQGERHLGITQLPIPILGASQEKIKELRNYFHSLEIEDLVLVDFSTIAQQSRTYDEYEREMYSANEDDLHYVGIGICAEKKAINKATGSLSLIRLEHHHHHH	failed
MFAPQGLAQFIKVNVTLENGEPVFIYTDANGQVCQGDITVTQAGTITYLLNDQTLKGLKFVGVGFVTPFDGIIDAVTISSDGMLVQLVDLDKTPGTTKFQFVLSNTANTLLVLSPDPQIINRPQN	not failed
PAAEAAPMSLAIHSTTGTRYDLAVPPDETVEGLRKRLSQRLKVPKERLALLHKDTRLSSGKLQEFGVGDGSKLTLVPTVEAGLMSQASRPEQSVMQ	failed
MSGFDLIIFDCDGVLVDSEIIAAQVESRLLTEAGYPISVEEMGERFAGMTWKNILLQVESEASIPLSASLLDKSEKLLDMRLERDVKIIDGVKFALSRLTTPRCICSNSSSHRLDMMLTKVGLKPYFAPHIYSAKDLGADRVKPKPDIFLHGAAQFGVSPDRVVVVEDSVHGIHGARAAGMRVIGFTGASHTYPSHADRLTDAGAETVISRMQDLPAVIAAMAEWEGAF	not failed
GVLILHGFTANLESVRALFGPLGRFDLKMATPLLRGHGAASPDELRGVTWREWLDDAENAFETLTGTGGKAVVIGHSMGALLALQLAARRPELVDSVILATPPVRLTSPLGPGRPLHFLAPLVSHVVDRWDMEARFADPGSAIIPKQYDWAPTKTILSMFELLEETMRITGRVRVPALILQARHESVVLPESAEILTRAIATPPEAKSIVWFDKTDHQIFCDCERKAAVDAVVSFVSKRFP	failed
MTAYIIVGLTPKDAEKLQQYGARVASTLAKYSGEVLVKGSVEQLHGKFEHKAQVILEFPSREDAYNWYHSEEYQALISTRDLGMDSQFQLIG	not failed
MIRALSMHLLDRLTIRLFHDERQKQFSGDHARSLGWSSTESQFLRFKTMTQAINFEQKTVLDLGCGYGDFKTFLDMSCCIKSYTGVDQQSSFIKQAKSLFKHHTNCEFIKADFSATTLPKADIVVASGSLNYRARNKTYHAKVIKEMYERAEEAVIFNLLNSEHFTSSSLLEAHDPQQVLKYCLSFCPDSELITDYANEDFTIVMRHSNSSKLEHHHHHH	not failed
MNVEGMATGGIHMELHCPKCQHVLDQDNGHARCPSCGEFIEMKALCPDCHQPLQVLKACGAVDYFCQHGHGLISKKRVEFVLALEHHHHHH	failed
MFSFLEKNPFFFTLAFIFVFAIAGLVEILPNFFKSARPIEGLRPYTVLETAGRQIYIQEGCYHCHSQLIRPFQAEVDRYGAYSLSGEYAYDRPFLWGSKRIGPDLHRVGDYRTTDWHEKHMFDPKSVVPHSIMPAYKHLFTKKSDFDTAYAEALTQKKVFGVPYDTENGVKLGSVEEAKKAYLEEAKKITADMKDKRVLEAIERGEVLEIVALIAYLNSLGNSRINANQNAK	failed
MTAVSSPACAIAGKPPMLSMRDIWLRLHRWLALCLGLFLALLGLSGSLLELKGPILRWEVGAQMLQLAPGEHGTLLQQDAWIRAASDAYPQLHKVFGAAPPRQGFLESDNVIVFGALKERPGTGIAMIDPYSGEPRGFFVFEDLWLAKLVALHRSLLLPPAWGSNLVLLYGLALLGSLGSGLYLWWPGRRSWWKAASLRPGSRGNRRLREWHNVAAAWLCLPLLLIAGSGAWLARPDLFTWPGAQPMAIKPLFSAAHGHLLLGTPGAWLAFLCGISLPLLYLTGLLLWWRKRAARRAVQSFKETSHDTP	failed
MFKGTNNASDFTLMSFSDRQAKNHEPRLKARRRGCLIVLADRIIDALYHPAGPCQGADKARQSAIQHFRLDVPEGQCHRLRHLLDMRPAMTQTQPAPACSLPCSILLLAGGRGSRMGGQDKGLVAWRGQPLIAHVQAVVRPLSDDLIISCNRNAERYRAYADRLVEDGQKDFPGPLAGVLAGLATARHPWLLVLACDAPQIDAALIQALLDARGNDTRPVMVQQAGQWQPMFSLIPTALLGDLRQAWDNGERSLLRALAAHGLRPLPCAADDPRLSNFNTPELLSEAGPKPLA	failed
MDWTMISGSRDESLHAARDYWRRLNESECFDIEGIEAPPGAIALIPYDCQLPNSFHPLPLWVKLYASAGLHRFNMLEVLVNERSVGKLNIIVPIARPKGVTTNERFIPCDCFSVDDKLPQWPSHDSFNDRKRFYSVKESELQNNDWINLYLELVLCAIQKVRISDSDLSKLKIVKAVIETKEDMVPPNERLNAKTAVVYITFKGLANARIAAGEHYERKAIIRRIFNEHTGHLSLLGDLIGEKKFVNIDPVTYFNSPAYLEDITHELPPESPWMDILAGTGSMDQID	failed
